# Assay results: patent US20250188176A1 (INVETX, published 2025)
# Numbering of substitutions follows the chain as printed.
# B1: Dupilumab (dupilumab VH with human IgG1 constant region, dupilumab kappa light chain) (antibody, V domains shown)
# VH: EVQLVESGGGLEQPGGSLRLSCAGSGFTFRDYAMTWVRQAPGKGLEWVSSISGSGGNTYYADSVKGRFTISRDNSKNTLYLQMNSLRAEDTAVYYCAKDRLSITIRPRYYGLDVWGQGTTVTVSS
# VL: DIVMTQSPLSLPVTPGEPASISCRSSQSLLYSIGYNYLDWYLQKSGQSPQLLIYLGSNRASGVPDRFSGSGSGTDFTLKISRVEAEDVGFYYCMQALQTPYTFGQGTKLEIKR
# notes: human IgG1 instead of the IgG4 of the drug
# B2: 21188-H + 21188-L (antibody, V domains shown)
# VH: EVQLVESGGDLVKPGGSLRLSCVASGFTFRDYAMTWVRQAPGKGLQWLSLISGSGGKTYYADAVKGRFTISRDNAKNTLYLQMNSLRAEDTAVYYCAVDRLTKTIRPQYYGLWHWGQGTLVTVSS
# VL: DIVMTQTPLSLSVSPGETASISCRSSQSLTYSIGYNYLDWYMQKPGQSPQGLIYLGSKRASGVSDRFSGSGSGADFTLKISRVEADDAGVYYCMQGLQSPLGFGQGTKLEIKR
# B3: TB640_109 (antibody, V domains shown)
# VH: B2 VH with L48V, L50T, W113S, H114V
# VL: DIVMTQTPLSLSVSPGETASISCRASQSLLYSIGYNYLDWYLQKPGQSPQGLIYLGSKRASGVPDRFSGSGSGTDFTLRISRVEANDTGVYYCMQALRDPYTFGQGTKLEIKR
# notes: caninized IgG
# B4: TB640_057 (antibody, V domains shown)
# VH: B2 VH with L48V, L50T, S52T, K57N, V98K, T102S, K103I, Q108R, W113D, H114V
# VL: B3 VL with L97I, R98Q, D99A
# notes: caninized IgG
# B5: Fjmix_PS-H + 21188-L (antibody, V domains shown)
# VH: B2 VH with T28P, T35D, H114S
# VL: B2 VL
# B6: TB640_005 Fab-SASA VL-T102L (Fab, V domains shown)
# VH: B2 VH with L48V, H114V
# VL: B3 VL with A25S, A96G, R98Q, D99S, Y101L, T102L
# notes: not shown: SASA tag then His-tag
# B7: TB640_005 Fab-SASA VL-S57H (Fab, V domains shown)
# VH: B2 VH with L48V, H114V
# VL: B3 VL with A25S, S57H, A96G, R98Q, D99S, Y101L
# notes: as for B6
# B8: TB640_005 Fab-SASA VL-T102S (Fab, V domains shown)
# VH: B2 VH with L48V, H114V
# VL: B3 VL with A25S, A96G, R98Q, D99S, Y101L, T102S
# notes: as for B6
# B9: TB640_005 Fab-SASA VL-S57T (Fab, V domains shown)
# VH: B2 VH with L48V, H114V
# VL: B3 VL with A25S, S57T, A96G, R98Q, D99S, Y101L
# notes: as for B6
# B10: 21188-H + GFmix2_KTHG-L (antibody, V domains shown)
# VH: B2 VH
# VL: B2 VL with Q27K, Q98H
# B11: TB640_005 Fab-SASA VL-T102G (Fab, V domains shown)
# VH: B2 VH with L48V, H114V
# VL: B3 VL with A25S, A96G, R98Q, D99S, Y101L, T102G
# notes: as for B6
# B12: FJP05A03-H + GFmix3_KTHS-L (antibody, V domains shown)
# VH: B2 VH with F27L, T28P, T35A, H114V
# VL: B2 VL with Q27K, Q98H, G102S
# B13: TB640_005 Fab-SASA VL-Q95N (Fab, V domains shown)
# VH: B2 VH with L48V, H114V
# VL: B3 VL with A25S, Q95N, A96G, R98Q, D99S, Y101L
# notes: as for B6
# B14: 21188-H + FJP10A09-L (antibody, V domains shown)
# VH: B2 VH
# VL: B2 VL with Q98H, G102S
# B15: FJP05A03-H + GFmix_THS-L (antibody, V domains shown)
# VH: B2 VH with F27L, T28P, T35A, H114V
# VL: B2 VL with Q98H
# B16: GFmix_PTH-H + GFmix3_KTHS-L (antibody, V domains shown)
# VH: B2 VH with T28P
# VL: B2 VL with Q27K, Q98H, G102S
# B17: TB640_005 Fab-SASA VL-Y35M (Fab, V domains shown)
# VH: B2 VH with L48V, H114V
# VL: B3 VL with A25S, Y35M, A96G, R98Q, D99S, Y101L
# notes: as for B6
# B18: FJP06D01-H + 21188-L (antibody, V domains shown)
# VH: B2 VH with T28P, T35D, H114V
# VL: B2 VL
# B19: Gfmix_PTH-H + 21188-L (antibody, V domains shown)
# VH: B2 VH with T28P
# VL: B2 VL
# B20: FJP05A03-H + 21188-L (antibody, V domains shown)
# VH: B2 VH with F27L, T28P, T35A, H114V
# VL: B2 VL
# B21: 21188-H + GFmix3_KTHS-L (antibody, V domains shown)
# VH: B2 VH
# VL: B2 VL with Q27K, Q98H, G102S
# B22: 21188-H + GFmix_THS-L (antibody, V domains shown)
# VH: B2 VH
# VL: B2 VL with Q98H
# B23: FJP07H09-H + 21188-L (antibody, V domains shown)
# VH: B2 VH with T35D, H114S
# VL: B2 VL
# B24: 21188-H + FJP10F04-L (antibody, V domains shown)
# VH: B2 VH
# VL: B2 VL with Q27K, T30L, Q98H, G102T
# B25: TB640_005 Fab-SASA VL-S57N (Fab, V domains shown)
# VH: B2 VH with L48V, H114V
# VL: B3 VL with A25S, S57N, A96G, R98Q, D99S, Y101L
# notes: as for B6
# B26: FJP05A03-H + FJP10A09-L (antibody, V domains shown)
# VH: B2 VH with F27L, T28P, T35A, H114V
# VL: B2 VL with Q98H, G102S
# B27: GFmix_PTH-H + FJP10A09-L (antibody, V domains shown)
# VH: B2 VH with T28P
# VL: B2 VL with Q98H, G102S
# B28: TB640_005 (antibody, V domains shown)
# VH: B2 VH with L48V, H114V
# VL: B3 VL with A25S, A96G, R98Q, D99S, Y101L
# notes: caninized IgG; also called TB640_005-H + TB640_005-L
# B29: TB640_005 Fab-SASA VL-T102N (Fab, V domains shown)
# VH: B2 VH with L48V, H114V
# VL: B3 VL with A25S, A96G, R98Q, D99S, Y101L, T102N
# notes: as for B6
# Experiments:
# [1] = molecular target: T1, Extracellular domain (ECD) of the canine IL-4 receptor alpha-V5 epitope-AviTag-His Tag (canine); assay: SPR, antibody captured via anti-human Fc
# T1 construct: monomeric form isolated by size exclusion; also called canine IL-4RA-V5-Avi-His; canine IL-4RA
# T1 chain: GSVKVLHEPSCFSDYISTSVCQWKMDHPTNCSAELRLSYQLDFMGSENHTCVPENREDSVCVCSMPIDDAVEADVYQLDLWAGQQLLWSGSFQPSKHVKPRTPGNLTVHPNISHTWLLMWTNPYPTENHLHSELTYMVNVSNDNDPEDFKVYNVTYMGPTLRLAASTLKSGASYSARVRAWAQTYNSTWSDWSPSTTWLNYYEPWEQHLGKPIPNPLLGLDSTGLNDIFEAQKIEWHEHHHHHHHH
# Protocol: To determine the affinity of dupilumab more accurately for canine IL-4RA, an SPR experiment was completed using a Biacore T200 instrument. In this experiment, a CM5 sensor chip (Cytiva, cat #BR100530) was used to immobilize anti-human Fc following the instructions of Human Antibody Capture Kit (Cytiva, cat #BR100839). […] The running buffer was HBS-EP buffer (10 mM HEPES pH 7.4, 150 mM NaCl, 3 mM EDTA and 0.005% (v/v) P20 surfactant). […] All kinetic and steady state analyses were performed using BIAEVAL provided by BIACORE Inc.
# [2] = molecular target: T2, Extracellular domain (ECD) of the canine IL-4 receptor alpha-AviTag-His Tag (canine); assay: SPR, IgG captured via anti-dog Fc
# T2 construct: expressed in CHO cells; also called canine IL-4RA; canine IL4Ra
# T2 chain: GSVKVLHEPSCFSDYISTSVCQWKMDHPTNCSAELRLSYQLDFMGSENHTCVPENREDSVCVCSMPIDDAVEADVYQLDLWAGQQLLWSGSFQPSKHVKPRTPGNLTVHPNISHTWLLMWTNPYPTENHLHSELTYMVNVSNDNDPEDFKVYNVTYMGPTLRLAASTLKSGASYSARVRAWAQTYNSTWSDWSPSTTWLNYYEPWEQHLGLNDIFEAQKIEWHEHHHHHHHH
# Protocol: (§1) Both the heavy and light chain variants were evaluated for their binding kinetics to canine IL-4RA using SPR on a Biacore T200. The antibodies were captured using a CM5 Series S chip amine coupled with an anti-dog Fc antibody (Jackson Immunoresearch). […] The length of the association time was 120 s and the dissociation time was run for 600 s. The chip surface was regenerated with 10 mM glycine. Double reference-subtracted sensorgrams were fitted to a 1:1 binding model using Biacore T200 Evaluation software.
# [3] = molecular target: T2, Extracellular domain (ECD) of the …; assay: SPR, IgG captured via anti-dog Fc
# Protocol: as §1
# Six different combinations of heavy and light chain variants (Table 30) were co-transfected and produced as described above. The binding kinetics of the heavy and light chain variants to canine IL-4RA was determined using the SPR methods described above.
# [4] = molecular target: T2, Extracellular domain (ECD) of the …; assay: SPR, IgG captured via anti-dog Fc
# Protocol: as §1
# [5] = molecular target: canine IL-4RA on canine DH82 cells (canine); assay: cell-based or functional assay
# [6] = molecular target: T2, Extracellular domain (ECD) of the …; assay: SPR, IgG captured via anti-dog H+L
# Protocol: Affinities were determined by SPR on a Biacore T200. The antibodies were captured using a CM5 Series S chip amine coupled with an anti-dog H+L antibody (Jackson Immunoresearch). Antigen, canine IL-4RA (EQ ID NO:2), binding was then assessed at multiple concentrations starting at 100 nM using PBSP+ running buffer (Cytiva) with a flow rate of 30 μL/min. […] The length of the association time was 120 s and the dissociation time was run for 600 s. The chip surface was regenerated with 10 mM glycine.
# [7] = molecular target: T1, Extracellular domain (ECD) of the …; assay: SPR, Fab-SASA captured on BSA;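 note: biacore T200 SPR, Fab-SASA variants from E. coli conditioned medium captured on BSA-coated CM5 chip, canine IL-4RA injected 120 s then 420 s dissociation, 1:1 model fit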
# Protocol: Forty-four PML clones were selected from each library for expression in E. coli in 96 deep-well plates by inoculating into 2YT medium and inducing with 0.2 mM IPTG overnight at room temperature. The Fab secreted in the medium was analyzed for binding activity by completing an ELISA. […] The 39 unique clones were confirmed by an off-rate screening assay in an SPR assay performed on a Biacore T200. For the SPR analyses, bovine serum albumin (BSA) was immobilized to CM5 sensor chip. The sensor chip surface was activated with 50 mmol/L H-Hydroxysuccinimide and 200 mmol/L 1-ethyl-3-(3-dimethylaminopropyl) carbodiimide hydrochloride for 420 s. Afterwards, BSA diluted in 10 mM sodium acetate, pH 4.5 was injected. After the amine coupling reaction, the remaining active coupling sites on the chip surface were blocked with 1 mM ethanolamine hydrochloride. The selected Fab-SASA variants in conditioned medium were captured on the BSA-coated chips. The running buffer was HBS-EP (10 mM HEPES 500 mM NaCl, 3 mM EDTA, 0.05% Tween 20, pH 7.4). After equilibration, canine IL-4RA was injected for 120 seconds (association phase) followed by the injection of running buffer for 420 sec (dissociation phase). The off-rates of the Fab-SASA clones were obtained from fitting the experimental data locally to a 1:1 interaction model using the Biacore T200 evaluation software.
binder,measurement,setting,value
B1,Kd,[1],130 nM
same,koff,[1],0.143 s⁻¹
same,kon,[1],1.09e+06 M⁻¹ s⁻¹
B2,Kd,[2],0.18 nM
same,koff,[2],5.96e-05 s⁻¹
same,kon,[2],332000 M⁻¹ s⁻¹
same,Kd,[3],0.243 nM
same,koff,[3],9.93e-05 s⁻¹
same,kon,[3],410000 M⁻¹ s⁻¹
same,Kd,[4],0.4 nM
same,koff,[4],9.85e-05 s⁻¹
same,kon,[4],246000 M⁻¹ s⁻¹
same,IC50: % inhibition of STAT6 phosphorylation (AlphaLISA pSTAT6) in canine DH82 cells stimulated with 20 ng/mL canine IL-4,[5],2.17 nM
B3,Kd,[6],6.06 nM
same,koff,[6],0.00136 s⁻¹
same,kon,[6],225000 M⁻¹ s⁻¹
B4,Kd,[6],5.54 nM
same,koff,[6],0.00107 s⁻¹
same,kon,[6],194000 M⁻¹ s⁻¹
B5,Kd,[4],0.878 nM
same,koff,[4],0.000206 s⁻¹
same,kon,[4],235000 M⁻¹ s⁻¹
B6,Kd,[7],6.53 nM
same,Ratio WT-kd/clone-kd,[7],1.7
same,koff,[7],0.000562 s⁻¹
same,kon,[7],86000 M⁻¹ s⁻¹
B7,Kd,[7],8.2 nM
same,Ratio WT-kd/clone-kd,[7],1.41
same,koff,[7],0.000677 s⁻¹
same,kon,[7],82600 M⁻¹ s⁻¹
B8,Kd,[7],6.61 nM
same,Ratio WT-kd/clone-kd,[7],1.94
same,koff,[7],0.000492 s⁻¹
same,kon,[7],74400 M⁻¹ s⁻¹
B9,Kd,[7],15 nM
same,Ratio WT-kd/clone-kd,[7],0.91
same,koff,[7],0.00105 s⁻¹
same,kon,[7],70400 M⁻¹ s⁻¹
B10,Kd,[2],0.168 nM
same,koff,[2],5.92e-05 s⁻¹
same,kon,[2],354000 M⁻¹ s⁻¹
B11,Kd,[7],5.74 nM
same,Ratio WT-kd/clone-kd,[7],2.11
same,koff,[7],0.000451 s⁻¹
same,kon,[7],78500 M⁻¹ s⁻¹
B12,Kd,[3],0.187 nM
same,koff,[3],8.68e-05 s⁻¹
same,kon,[3],466000 M⁻¹ s⁻¹
B13,Kd,[7],4.15 nM
same,Ratio WT-kd/clone-kd,[7],1.99
same,koff,[7],0.00048 s⁻¹
same,kon,[7],116000 M⁻¹ s⁻¹
B14,Kd,[2],0.143 nM
same,koff,[2],4.62e-05 s⁻¹
same,kon,[2],324000 M⁻¹ s⁻¹
B15,Kd,[3],0.169 nM
same,koff,[3],8.32e-05 s⁻¹
same,kon,[3],492000 M⁻¹ s⁻¹
B16,Kd,[3],0.17 nM
same,koff,[3],7.58e-05 s⁻¹
same,kon,[3],447000 M⁻¹ s⁻¹
same,IC50: % inhibition of STAT6 phosphorylation (AlphaLISA pSTAT6) in canine DH82 cells stimulated with 20 ng/mL canine IL-4,[5],0.6 nM
B17,Kd,[7],8.34 nM
same,Ratio WT-kd/clone-kd,[7],1.02
same,koff,[7],0.000932 s⁻¹
same,kon,[7],112000 M⁻¹ s⁻¹
B18,Kd,[4],0.908 nM
same,koff,[4],0.000208 s⁻¹
same,kon,[4],230000 M⁻¹ s⁻¹
B19,Kd,[4],0.381 nM
same,koff,[4],9.71e-05 s⁻¹
same,kon,[4],255000 M⁻¹ s⁻¹
B20,Kd,[4],0.377 nM
same,koff,[4],0.000105 s⁻¹
same,kon,[4],279000 M⁻¹ s⁻¹
B21,Kd,[2],0.144 nM
same,koff,[2],4.79e-05 s⁻¹
same,kon,[2],333000 M⁻¹ s⁻¹
B22,Kd,[2],0.162 nM
same,koff,[2],5.78e-05 s⁻¹
same,kon,[2],357000 M⁻¹ s⁻¹
B23,Kd,[4],1.07 nM
same,koff,[4],0.000253 s⁻¹
same,kon,[4],236000 M⁻¹ s⁻¹
B24,Kd,[2],0.238 nM
same,koff,[2],6.81e-05 s⁻¹
same,kon,[2],286000 M⁻¹ s⁻¹
B25,Kd,[7],8.8 nM
same,Ratio WT-kd/clone-kd,[7],1.32
same,koff,[7],0.00072 s⁻¹
same,kon,[7],81800 M⁻¹ s⁻¹
B26,Kd,[3],0.201 nM
same,koff,[3],8.87e-05 s⁻¹
same,kon,[3],442000 M⁻¹ s⁻¹
B27,Kd,[3],0.167 nM
same,koff,[3],7e-05 s⁻¹
same,kon,[3],419000 M⁻¹ s⁻¹
B28,Kd,[3],2.29 nM
same,koff,[3],0.000486 s⁻¹
same,kon,[3],212000 M⁻¹ s⁻¹
same,Kd,[6],2.72 nM
same,koff,[6],0.000484 s⁻¹
same,kon,[6],180000 M⁻¹ s⁻¹
B29,Kd,[7],6.83 nM
same,Ratio WT-kd/clone-kd,[7],1.74
same,koff,[7],0.000548 s⁻¹
same,kon,[7],80100 M⁻¹ s⁻¹
